According to paper PMC6292511:

Assays:
[1] = biological target: DMA-1::GFPnovo2 (C. elegans); assay: FRET or BRET
[2] = biological target: DMA-1::RFP (C. elegans); assay: single molecule pull-down

Row | Substance | fraction of DMA-1::GFPnovo2 bound to HPO-30::mCherry [1] [%] | percent of DMA-1::RFP speckles co-localized with HPO-30::GFP [2] [%]
1 | HPO-30::mCherry (natural protein) | 30 | –
2 | HPO-30::GFP (natural protein) | – | 56.1
